Reference: patent US20250043017A1

Biological target: human 4-1BB expressed with a C-terminal myc-myc-hexahistidine tag (h4-1BB.mmH) (human)
Assay: blocking ELISA, 0.25 nM h4-1BB-mmh binding to coated 6His-Flag-h4-1BBL

Sequence of human 4-1BB expressed with a C-terminal myc-myc-hexahistidine tag (h4-1BB.mmH) (human) (chain, as listed by the source limits assumed): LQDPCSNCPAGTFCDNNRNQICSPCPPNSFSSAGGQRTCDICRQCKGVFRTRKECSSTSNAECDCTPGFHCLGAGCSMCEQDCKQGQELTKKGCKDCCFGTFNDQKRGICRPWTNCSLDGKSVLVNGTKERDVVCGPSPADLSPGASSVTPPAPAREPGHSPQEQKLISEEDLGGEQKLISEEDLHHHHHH

| Substance | % Blocking at 100 nM mAb [%] |
| --- | --- |
| Isotype Control 2 (antibody) | -11 |
| Isotype Control 1 (antibody) | -8 |
